Publication PMC2542413

Key:
[1] = biological target: soluble human 4-domain CD4 (human); test: ELISA; CD4 solution competition assay: Env trimers co-incubated with 2, 4 or 9 nM sCD4 in PBS at room temperature for 1 h; non-Env-bound sCD4 captured on plate-bound anti-CD4 RPA-T4 and detected with biotin-OKT-4
[2] = biological target: YU2 gp140-F trimers (HIV-1 (primary isolate YU2) | not stated); test: SEC; gel filtration on a Superdex 200 26/60 prep grade column; trimers separated from lower molecular weight forms

Substance: YU2 gp140-F trimers
- half-maximal binding (with 2 nM sCD4) [1]: 7 nM
- half-maximal binding (with 4 nM sCD4) [1]: 13 nM
- half-maximal binding (with 9 nM sCD4) [1]: 26 nM
- stoichiometry N [2]: 3
